Test results taken from paper PMC10397247.

Key:
Experiment in all cases: two-hybrid library CCmax;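 also: natural log of median RNA to DNA barcode read ratio; higher means stronger binding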
4H710-AA = target: T1, 4H710-AA; conditions: mean of both orientations
T1 chain: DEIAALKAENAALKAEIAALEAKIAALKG

4H797-AA = target: T2, 4H797-AA; conditions: mean of both orientations
T2 chain: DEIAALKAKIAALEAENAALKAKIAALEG

4H3381-AA = target: T3, 4H3381-AA; conditions: mean of both orientations
T3 chain: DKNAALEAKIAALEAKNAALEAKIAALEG

4H570-AA = target: T4, 4H570-AA; conditions: mean of both orientations
T4 chain: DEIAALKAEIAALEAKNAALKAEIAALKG

O6-AA = target: T5, O6-AA; conditions: mean of both orientations
T5 chain: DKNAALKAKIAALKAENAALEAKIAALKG

4H3016-AA = target: T6, 4H3016-AA
T6 chain: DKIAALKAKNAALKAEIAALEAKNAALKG

4H384-AA = target: T7, 4H384-AA; conditions: mean of both orientations
T7 chain: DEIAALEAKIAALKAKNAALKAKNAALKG

4H891-AA = target: T8, 4H891-AA; conditions: mean of both orientations
T8 chain: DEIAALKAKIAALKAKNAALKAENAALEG

4H3395-AA = target: T9, 4H3395-AA; conditions: mean of both orientations
T9 chain: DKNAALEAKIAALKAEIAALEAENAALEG

4H3697-AA = target: T10, 4H3697-AA; conditions: mean of both orientations
T10 chain: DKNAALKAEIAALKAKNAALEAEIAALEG

4H3590-AA = target: T11, 4H3590-AA; conditions: mean of both orientations
T11 chain: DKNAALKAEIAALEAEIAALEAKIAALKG

4H909-AA = target: T12, 4H909-AA; conditions: mean of both orientations
T12 chain: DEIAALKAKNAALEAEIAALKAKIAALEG

P9-AA = target: T13, P9-AA; conditions: mean of both orientations
T13 chain: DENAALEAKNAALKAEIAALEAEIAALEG

4H310-AA = target: T14, 4H310-AA; conditions: mean of both orientations
T14 chain: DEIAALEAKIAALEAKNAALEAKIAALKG

4H930-AA = target: T15, 4H930-AA; conditions: mean of both orientations
T15 chain: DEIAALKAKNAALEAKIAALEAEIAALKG

4H485-AA = target: T16, 4H485-AA; conditions: mean of both orientations
T16 chain: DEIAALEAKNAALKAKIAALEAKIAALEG

O13-AA = target: T17, O13-AA; conditions: mean of both orientations
T17 chain: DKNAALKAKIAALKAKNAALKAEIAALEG

4H3410-AA = target: T18, 4H3410-AA; conditions: mean of both orientations
T18 chain: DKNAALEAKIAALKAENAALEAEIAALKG

O3-AA = target: T19, O3-AA; conditions: mean of both orientations
T19 chain: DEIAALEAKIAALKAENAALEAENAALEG

4H458-AA = target: T20, 4H458-AA; conditions: mean of both orientations
T20 chain: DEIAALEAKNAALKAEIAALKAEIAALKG

O7-AA = target: T21, O7-AA; conditions: mean of both orientations
T21 chain: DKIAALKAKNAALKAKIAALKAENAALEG

4H3130-AA = target: T22, 4H3130-AA; conditions: mean of both orientations
T22 chain: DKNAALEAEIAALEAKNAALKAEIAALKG

O14-AA = target: T23, O14-AA; conditions: mean of both orientations
T23 chain: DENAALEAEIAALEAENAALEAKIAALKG

O11-AA = target: T24, O11-AA; conditions: mean of both orientations
T24 chain: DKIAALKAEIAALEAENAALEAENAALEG

O4-AA = target: T25, O4-AA; conditions: mean of both orientations
T25 chain: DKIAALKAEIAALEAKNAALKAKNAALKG

4H3753-AA = target: T26, 4H3753-AA; conditions: mean of both orientations
T26 chain: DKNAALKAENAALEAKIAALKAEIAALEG

4H3165-AA = target: T27, 4H3165-AA; conditions: mean of both orientations
T27 chain: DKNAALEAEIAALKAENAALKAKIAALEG

4H3120-AA = target: T28, 4H3120-AA; conditions: mean of both orientations
T28 chain: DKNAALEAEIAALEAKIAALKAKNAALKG

4H94-AA = target: T29, 4H94-AA; conditions: mean of both orientations
T29 chain: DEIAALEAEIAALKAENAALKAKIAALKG

4H536-AA = target: T30, 4H536-AA; conditions: mean of both orientations
T30 chain: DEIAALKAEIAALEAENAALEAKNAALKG

O1-AA = target: T31, O1-AA; conditions: mean of both orientations
T31 chain: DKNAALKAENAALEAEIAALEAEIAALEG

4H850-AA = target: T32, 4H850-AA; conditions: mean of both orientations
T32 chain: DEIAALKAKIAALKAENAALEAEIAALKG

4H3865-AA = target: T33, 4H3865-AA; conditions: mean of both orientations
T33 chain: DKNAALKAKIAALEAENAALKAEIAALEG

P10-AA = target: T34, P10-AA; conditions: mean of both orientations
T34 chain: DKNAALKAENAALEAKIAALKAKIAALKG

O2-AA = target: T35, O2-AA; conditions: mean of both orientations
T35 chain: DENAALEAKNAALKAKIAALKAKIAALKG

O8-AA = target: T36, O8-AA; conditions: mean of both orientations
T36 chain: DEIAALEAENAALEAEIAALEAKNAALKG

4H629-AA = target: T37, 4H629-AA; conditions: mean of both orientations
T37 chain: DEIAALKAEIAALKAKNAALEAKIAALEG

O5-AA = target: T38, O5-AA; conditions: mean of both orientations
T38 chain: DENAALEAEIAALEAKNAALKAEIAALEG

4H745-AA = target: T39, 4H745-AA; conditions: mean of both orientations
T39 chain: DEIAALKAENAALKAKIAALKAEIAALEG

interaction score (4H710-AA): -1.35
interaction score (4H797-AA): -1.65
interaction score (4H3381-AA): -1.11
interaction score (4H570-AA): -1.4
interaction score (O6-AA): 0.964
interaction score (4H3016-AA): -1.56
interaction score (4H384-AA): -1.89
interaction score (4H891-AA): -1.63
interaction score (4H3395-AA): -1.1
interaction score (4H3697-AA): -0.432
interaction score (4H3590-AA): 0.669
interaction score (4H909-AA): -0.857
interaction score (P9-AA): -0.637
interaction score (4H310-AA): -0.901
interaction score (4H930-AA): -1.32
interaction score (4H485-AA): -0.786
interaction score (O13-AA): -1.87
interaction score (4H3410-AA): 0.759
interaction score (O3-AA): -0.74
interaction score (4H458-AA): -1.13
interaction score (O7-AA): 0.0246
interaction score (4H3130-AA): -0.405
interaction score (O14-AA): 2
interaction score (O11-AA): -1.4
interaction score (O4-AA): -1.64
interaction score (4H3753-AA): 0.667
interaction score (4H3165-AA): -1.17
interaction score (4H3120-AA): -1.33
interaction score (4H94-AA): -0.745
interaction score (4H536-AA): -0.944
interaction score (O1-AA): -0.276
interaction score (4H850-AA): -0.436
interaction score (4H3865-AA): -1.38
interaction score (P10-AA): -0.503
interaction score (O2-AA): -1.29
interaction score (O8-AA): 1.56
interaction score (4H629-AA): -1.28
interaction score (O5-AA): -0.896
interaction score (4H745-AA): 0.997
B1: 4H3016-AA (peptide)
chain: DKIAALKAKNAALKAEIAALEAKNAALKG
